{"source": "patent US20070265189A1", "about": "(published 2007)", "binders": {"B1": {"name": "20E2A-3-A3-IGFR (peptide)", "peptide": "DYKDGHYFGSFYDAIDQLVAGMLPGAAAGAP", "notes": "not shown: rest of the phage display fusion (remainder of E-Tag, phage coat protein)"}, "B2": {"name": "R20β-4-E8-IR (peptide)", "peptide": "DYKDVRGFQGGTVWPGYEWLRNAAAAAGAP", "notes": "as for B1"}, "B3": {"name": "20E2A-4-G11-IGFR (peptide)", "peptide": "DYKDMNVFVSFYDAIDQLVCQRIGCAAAGAP", "notes": "as for B1"}, "B4": {"name": "20E2A-3-A4-IGFR (peptide)", "peptide": "DYKDAGSVTSFYDAMEQLVATGTSAAAAGAP", "notes": "as for B1"}, "B5": {"name": "B6Hα-3-F1-IR (peptide)", "peptide": "DYKDCSMAAVAEAGDDDDPFYHKLSELCQGSAAAGAP", "notes": "as for B1"}, "B6": {"name": "20E2Bβ-3-C7-IR (peptide)", "peptide": "DYKDQSGSGDFYDWLSRLIRGNGDGAAAGAP", "notes": "as for B1"}, "B7": {"name": "B6L-3-G5-IR (peptide)", "peptide": "DYKDAETSAQVGWQRLWSVWPGDHWSTLDPFYHKLSELLRESGAAAAGAP", "notes": "as for B1"}, "B8": {"name": "B6Hα-3-E5-IR (peptide)", "peptide": "DYKDRCGDEEGWQENRRDDPFYHKLSELFGGCAAAGAP", "notes": "as for B1"}, "B9": {"name": "B6Hα-2-D8-IR (peptide)", "peptide": "DYKDSSETAKMVTGTRDDPFYHKLSELVQGSAAAGAP", "notes": "as for B1"}, "B10": {"name": "B6Hα-3-F7-IR (peptide)", "peptide": "DYKDSRVAATKEKRPSDDPFYHKLSELLQGSAAAGAP", "notes": "as for B1"}, "B11": {"name": "B6Hα-3-E6-IR (peptide)", "peptide": "DYKDCGAKMTGTPNDPFYHKLSELLQRGAAAGAP", "notes": "as for B1"}, "B12": {"name": "B6Hα-1-B3-IR (peptide)", "peptide": "DYKDGCITAENGAGDPFYHKLSELGGCSAAAGAP", "notes": "as for B1"}}, "data": [{"molecular_target": "T1, Soluble IGF-1R (R&D Systems, Cat. # 391-GR/CF) (UniProt P08069 31-935, limits assumed)", "T1 construct": "extracellular domain; also called sIGF-1R; IGFR", "assay": "not given", "units": {"Ratio over Background, IGF-1R": "ratio over background"}, "values": [{"binder": "B1", "Ratio over Background, IGF-1R": 3}, {"binder": "B2", "Ratio over Background, IGF-1R": 34.9}, {"binder": "B3", "Ratio over Background, IGF-1R": 3.3}, {"binder": "B4", "Ratio over Background, IGF-1R": 2.5}, {"binder": "B5", "Ratio over Background, IGF-1R": 2.4}, {"binder": "B6", "Ratio over Background, IGF-1R": 3.1}, {"binder": "B7", "Ratio over Background, IGF-1R": 2}, {"binder": "B8", "Ratio over Background, IGF-1R": 2.9}, {"binder": "B9", "Ratio over Background, IGF-1R": 3}, {"binder": "B10", "Ratio over Background, IGF-1R": 3.1}, {"binder": "B11", "Ratio over Background, IGF-1R": 2.3}, {"binder": "B12", "Ratio over Background, IGF-1R": 3.2}]}, {"molecular_target": "T2, Insulin receptor prepared according to Bass et al., 1996 (human, UniProt P06213 28-956, limits assumed)", "T2 construct": "extracellular domain; also called IR; soluble IR (Bass construct); not shown: immunoglobulin constant domains (Fc or lambda) of the Bass construct", "assay": "not given", "units": {"Ratio over Background, IR": "ratio over background"}, "values": [{"binder": "B1", "Ratio over Background, IR": 1.5}, {"binder": "B2", "Ratio over Background, IR": 3.6}, {"binder": "B3", "Ratio over Background, IR": 1.3}, {"binder": "B4", "Ratio over Background, IR": 1.8}, {"binder": "B5", "Ratio over Background, IR": 1.3}, {"binder": "B6", "Ratio over Background, IR": 1.5}, {"binder": "B7", "Ratio over Background, IR": 1.4}, {"binder": "B8", "Ratio over Background, IR": 1}, {"binder": "B9", "Ratio over Background, IR": 1}, {"binder": "B10", "Ratio over Background, IR": 1}, {"binder": "B11", "Ratio over Background, IR": 1.2}, {"binder": "B12", "Ratio over Background, IR": 1.1}]}, {"molecular_target": "T2, Insulin receptor prepared according to …", "assay": "phage ELISA: IR ratio over background divided by IGF-1R ratio over background", "units": {"Comparison IR/IGF-1R": "ratio"}, "values": [{"binder": "B1", "Comparison IR/IGF-1R": 0.5}, {"binder": "B2", "Comparison IR/IGF-1R": 0.1}, {"binder": "B3", "Comparison IR/IGF-1R": 0.4}, {"binder": "B4", "Comparison IR/IGF-1R": 0.7}, {"binder": "B5", "Comparison IR/IGF-1R": 0.5}, {"binder": "B6", "Comparison IR/IGF-1R": 0.5}, {"binder": "B7", "Comparison IR/IGF-1R": 0.7}, {"binder": "B8", "Comparison IR/IGF-1R": 0.3}, {"binder": "B9", "Comparison IR/IGF-1R": 0.3}, {"binder": "B10", "Comparison IR/IGF-1R": 0.3}, {"binder": "B11", "Comparison IR/IGF-1R": 0.5}, {"binder": "B12", "Comparison IR/IGF-1R": 0.3}]}, {"molecular_target": "T3, Soluble IGF-1R (sIGF-1R), R&D Systems Cat. # 391-GR/CF (UniProt P08069 31-935, limits assumed)", "T3 construct": "extracellular domain", "assay": "phage ELISA", "values": [{"binder": "NYRRQVFNGNFYDWFDRQVFSLVTPG", "note": "[H2CA-3-D8-IGFR]", "IGF-1R/IR comparison": 4, "Ratio over Background": 7.2}, {"binder": "QAVQPGFHEEFYDWFVRQVSTGVGGG", "note": "[H2CA-4-H4-IGFR]", "IGF-1R/IR comparison": 4.2, "Ratio over Background": 4.1}, {"binder": "APDPSDFQEIFYDWFVRQVSRMPGGG", "note": "[H2CA-1-A3-IGFR]", "IGF-1R/IR comparison": 5.1, "Ratio over Background": 3.8}, {"binder": "SSCDGAGHESFYEWFVRQVSGCRSV", "note": "[H2CA-3-C8-IGFR]", "IGF-1R/IR comparison": 4.8, "Ratio over Background": 5.6}, {"binder": "FYVQQWGHENFYDWFDRQVSQSGGAG", "note": "[H2CA-4-F1-IGFR]", "IGF-1R/IR comparison": 3.8, "Ratio over Background": 3.5}, {"binder": "SRAKVEAEMPDSGDPFYHKLSELLASG", "note": "[B6Hα-1-A3-IR]", "IGF-1R/IR comparison": 3.3, "Ratio over Background": 2.6}, {"binder": "SSIGGGFHENFYDWFSRQLSQSPPLK", "note": "[H2CA-4-F7-IGFR]", "IGF-1R/IR comparison": 4.1, "Ratio over Background": 3.2}, {"binder": "GIISQSCPESFYDWFAGQVSDPWWCW", "note": "[H2CA-4-G9-IGFR]", "IGF-1R/IR comparison": 16, "Ratio over Background": 9.5}, {"binder": "PPLASDLDVQFYGWFVQQVSPPGRGG", "note": "[H2CA-2-B3-IGFR]", "IGF-1R/IR comparison": 3.6, "Ratio over Background": 3.8}, {"binder": "RAGSSDFHEDFYEWFVRQVSLSLKGK", "note": "[H2CA-2-B9-IGFR]", "IGF-1R/IR comparison": 4.2, "Ratio over Background": 7}, {"binder": "LRRQAPVEENFYDWFVRQVSGDRVGG", "note": "[H2CA-3-D7-IGFR]", "IGF-1R/IR comparison": 3.7, "Ratio over Background": 3}, {"binder": "RCGRELYHSTFYDWFDRQVAGRTCPS", "note": "[H2CA-1-A7-IGFR]", "IGF-1R/IR comparison": 3.7, "Ratio over Background": 2.2}, {"binder": "GFREGNFYEWFQAQVT", "note": "[E4Dα-4-H2-IR]", "IGF-1R/IR comparison": 4.1, "Ratio over Background": 33.9}, {"binder": "CCLLCRFQQNFYDWFVCQGISRLRPL", "note": "[H2CA-2-B4-IGFR]", "IGF-1R/IR comparison": 3.6, "Ratio over Background": 4.1}, {"binder": "QSPVGSSHEDFYDWFFRQVAQSGAHQ", "note": "[H2CA-3-D6-IGFR]", "IGF-1R/IR comparison": 4, "Ratio over Background": 9}, {"binder": "TLDGGSFEEQFYDWFVRQLSYRTNPD", "note": "[H2CA-4-G11-IGFR]", "IGF-1R/IR comparison": 3.9, "Ratio over Background": 9.5}]}, {"molecular_target": "T4, soluble human insulin receptor-immunoglobulin heavy chain chimera (sIR-Fc; Bass et al., 1996) (human, UniProt P06213 28-956, limits assumed)", "T4 construct": "extracellular domain; also called soluble IR (Bass construct); not shown: immunoglobulin heavy chain constant domains", "assay": "phage ELISA", "values": [{"binder": "NYRRQVFNGNFYDWFDRQVFSLVTPG", "note": "[H2CA-3-D8-IGFR]", "IR/IGF-1R comparison": 0.3, "Ratio over Background": 1.8}, {"binder": "QAVQPGFHEEFYDWFVRQVSTGVGGG", "note": "[H2CA-4-H4-IGFR]", "IR/IGF-1R comparison": 0.2, "Ratio over Background": 1}, {"binder": "APDPSDFQEIFYDWFVRQVSRMPGGG", "note": "[H2CA-1-A3-IGFR]", "IR/IGF-1R comparison": 0.2, "Ratio over Background": 0.8}, {"binder": "SSCDGAGHESFYEWFVRQVSGCRSV", "note": "[H2CA-3-C8-IGFR]", "IR/IGF-1R comparison": 0.2, "Ratio over Background": 1.2}, {"binder": "FYVQQWGHENFYDWFDRQVSQSGGAG", "note": "[H2CA-4-F1-IGFR]", "IR/IGF-1R comparison": 0.3, "Ratio over Background": 0.9}, {"binder": "SRAKVEAEMPDSGDPFYHKLSELLASG", "note": "[B6Hα-1-A3-IR]", "IR/IGF-1R comparison": 0.3, "Ratio over Background": 0.8}, {"binder": "SSIGGGFHENFYDWFSRQLSQSPPLK", "note": "[H2CA-4-F7-IGFR]", "IR/IGF-1R comparison": 0.2, "Ratio over Background": 0.8}, {"binder": "GIISQSCPESFYDWFAGQVSDPWWCW", "note": "[H2CA-4-G9-IGFR]", "IR/IGF-1R comparison": 0.1, "Ratio over Background": 0.6}, {"binder": "PPLASDLDVQFYGWFVQQVSPPGRGG", "note": "[H2CA-2-B3-IGFR]", "IR/IGF-1R comparison": 0.3, "Ratio over Background": 1}, {"binder": "RAGSSDFHEDFYEWFVRQVSLSLKGK", "note": "[H2CA-2-B9-IGFR]", "IR/IGF-1R comparison": 0.2, "Ratio over Background": 1.7}, {"binder": "LRRQAPVEENFYDWFVRQVSGDRVGG", "note": "[H2CA-3-D7-IGFR]", "IR/IGF-1R comparison": 0.3, "Ratio over Background": 0.8}, {"binder": "RCGRELYHSTFYDWFDRQVAGRTCPS", "note": "[H2CA-1-A7-IGFR]", "IR/IGF-1R comparison": 0.3, "Ratio over Background": 0.6}, {"binder": "GFREGNFYEWFQAQVT", "note": "[E4Dα-4-H2-IR]", "IR/IGF-1R comparison": 0.2, "Ratio over Background": 8.2}, {"binder": "CCLLCRFQQNFYDWFVCQGISRLRPL", "note": "[H2CA-2-B4-IGFR]", "IR/IGF-1R comparison": 0.3, "Ratio over Background": 1.1}, {"binder": "QSPVGSSHEDFYDWFFRQVAQSGAHQ", "note": "[H2CA-3-D6-IGFR]", "IR/IGF-1R comparison": 0.3, "Ratio over Background": 2.2}, {"binder": "TLDGGSFEEQFYDWFVRQLSYRTNPD", "note": "[H2CA-4-G11-IGFR]", "IR/IGF-1R comparison": 0.3, "Ratio over Background": 2.5}]}, {"molecular_target": "T1, Soluble IGF-1R (R&D Systems, Cat. # …)", "assay": "phage ELISA: IGF-1R ratio over background divided by IR ratio over background", "units": {"Comparison IGF-1R/IR": "ratio"}, "values": [{"binder": "B1", "Comparison IGF-1R/IR": 1.9}, {"binder": "B2", "Comparison IGF-1R/IR": 9.7}, {"binder": "B3", "Comparison IGF-1R/IR": 2.6}, {"binder": "B4", "Comparison IGF-1R/IR": 1.4}, {"binder": "B5", "Comparison IGF-1R/IR": 1.8}, {"binder": "B6", "Comparison IGF-1R/IR": 2}, {"binder": "B7", "Comparison IGF-1R/IR": 1.4}, {"binder": "B8", "Comparison IGF-1R/IR": 2.9}, {"binder": "B9", "Comparison IGF-1R/IR": 3}, {"binder": "B10", "Comparison IGF-1R/IR": 3.1}, {"binder": "B11", "Comparison IGF-1R/IR": 1.9}, {"binder": "B12", "Comparison IGF-1R/IR": 2.9}]}]}
